According to patent publication US20170044259A1 (published 2017):
Residue numbers refer to the chain shown, from its start.

B1: PD-1 1.5 PD019 2001 (antibody)
heavy: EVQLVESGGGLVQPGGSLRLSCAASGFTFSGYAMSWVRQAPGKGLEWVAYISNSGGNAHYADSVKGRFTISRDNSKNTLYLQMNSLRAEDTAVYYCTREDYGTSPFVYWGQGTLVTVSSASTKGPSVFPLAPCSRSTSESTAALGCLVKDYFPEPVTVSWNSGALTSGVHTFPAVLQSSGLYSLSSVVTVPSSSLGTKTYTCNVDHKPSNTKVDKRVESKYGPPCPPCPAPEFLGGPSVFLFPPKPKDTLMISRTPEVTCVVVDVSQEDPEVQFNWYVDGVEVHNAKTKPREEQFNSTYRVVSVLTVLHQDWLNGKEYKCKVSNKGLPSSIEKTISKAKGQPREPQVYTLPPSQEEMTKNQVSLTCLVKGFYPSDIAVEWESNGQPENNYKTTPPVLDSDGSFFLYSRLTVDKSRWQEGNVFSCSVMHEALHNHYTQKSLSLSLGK
light: QGQSGQGPCDQNPYFYPYVCHAGGGSSGGSISSGLLSGRSDNHGGGSDIQLTQSPSSLSASVGDRVTITCRASESVDAYGISFMNWFQQKPGKAPKLLIYAASNQGSGVPSRFSGSGSGTDFTLTISSMQPEDFATYYCQQSKDVPWTFGQGTKLEIKRTVAAPSVFIFPPSDEQLKSGTASVVCLLNNFYPREAKVQWKVDNALQSGNSQESVTEQDSKDSTYSLSSTLTLSKADYEKHKVYACEVTHQGLSSPVTKSFNRGEC
B2: PD-1 1.5 PD028 2001 (antibody)
heavy: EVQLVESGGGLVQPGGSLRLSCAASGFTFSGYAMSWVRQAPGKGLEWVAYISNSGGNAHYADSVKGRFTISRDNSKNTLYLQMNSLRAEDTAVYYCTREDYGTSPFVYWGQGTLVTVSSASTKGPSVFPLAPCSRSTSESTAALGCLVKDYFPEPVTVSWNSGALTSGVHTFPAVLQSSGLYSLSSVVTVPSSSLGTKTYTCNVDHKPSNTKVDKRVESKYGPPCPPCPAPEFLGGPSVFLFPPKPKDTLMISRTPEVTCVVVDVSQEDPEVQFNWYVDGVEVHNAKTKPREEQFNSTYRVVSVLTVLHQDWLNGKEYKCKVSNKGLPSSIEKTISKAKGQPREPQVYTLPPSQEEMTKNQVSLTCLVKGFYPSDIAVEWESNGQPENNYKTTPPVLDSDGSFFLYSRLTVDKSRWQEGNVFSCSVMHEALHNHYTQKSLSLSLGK
light: QGQSGQGFQPCLMFASSCFTSKGGGSSGGSISSGLLSGRSDNHGGGSDIQLTQSPSSLSASVGDRVTITCRASESVDAYGISFMNWFQQKPGKAPKLLIYAASNQGSGVPSRFSGSGSGTDFTLTISSMQPEDFATYYCQQSKDVPWTFGQGTKLEIKRTVAAPSVFIFPPSDEQLKSGTASVVCLLNNFYPREAKVQWKVDNALQSGNSQESVTEQDSKDSTYSLSSTLTLSKADYEKHKVYACEVTHQGLSSPVTKSFNRGEC
B3: Bb2 (antibody, V domains shown)
VH: QVQLVQSGAEVKKPGASVKMSCKASGYTFTDYYMDWVRQAPGQGLEWIGYIYPKNGGSSYAQKFQGRATLTVDKSTSTAYMELSSLRSEDTAVYYCARKVVATDYWGQGTLLTVSS
VL: DIQMTQSPSSLSASVGDRVTMTCKSSQSLLYSSNQKNYLAWYQQKPGKAPKLLIFWASIRESGVPSRFSGSGSGTDFTLTISSVQPEDFATYYCQQSDSYPWTFGQGTKLEIKR
B4: Ba2 (antibody, V domains shown)
VH: B3 VH with K74T
VL: B3 VL
B5: D4 (antibody, V domains shown)
VH: EVQLVESGGGLVQPGGSLRLSCAHSGFSFSSYDMSWVRQAPGKGLEWVATISGGGRYTYYADSVKGRFTISRDNSKNTLYLQMNSLRAEDTAVYYCASNYYGFDYWGQGTLLTVSS
VL: DIQMTQSPSSLSASVGDRVTITCKASQDVGTAVAWYQQKPGKAPKLLIYWASTRHTGVPSRFSGSGSGTDFTLTISSVQPEDFATYYCQQYSSYPWTFGQGTKLEIKR
B6: PD-1 1.5 PD026 2001 (antibody)
heavy: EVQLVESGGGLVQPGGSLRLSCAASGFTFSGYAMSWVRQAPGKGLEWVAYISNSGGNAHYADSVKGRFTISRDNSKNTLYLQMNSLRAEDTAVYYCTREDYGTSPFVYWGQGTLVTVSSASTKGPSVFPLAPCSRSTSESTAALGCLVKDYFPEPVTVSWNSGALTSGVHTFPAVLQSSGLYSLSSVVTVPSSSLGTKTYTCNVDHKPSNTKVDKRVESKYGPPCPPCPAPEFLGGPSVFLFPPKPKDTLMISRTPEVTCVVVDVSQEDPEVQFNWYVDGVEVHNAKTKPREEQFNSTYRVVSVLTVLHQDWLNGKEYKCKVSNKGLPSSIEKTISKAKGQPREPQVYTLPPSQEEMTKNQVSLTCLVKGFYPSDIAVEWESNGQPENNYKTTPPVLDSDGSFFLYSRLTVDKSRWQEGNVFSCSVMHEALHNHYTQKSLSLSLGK
light: QGQSGQGGMCSAYAYSSKLCTIGGGSSGGSISSGLLSGRSDNHGGGSDIQLTQSPSSLSASVGDRVTITCRASESVDAYGISFMNWFQQKPGKAPKLLIYAASNQGSGVPSRFSGSGSGTDFTLTISSMQPEDFATYYCQQSKDVPWTFGQGTKLEIKRTVAAPSVFIFPPSDEQLKSGTASVVCLLNNFYPREAKVQWKVDNALQSGNSQESVTEQDSKDSTYSLSSTLTLSKADYEKHKVYACEVTHQGLSSPVTKSFNRGEC
B7: PD-1 1.5 PD025 2001 (antibody)
heavy: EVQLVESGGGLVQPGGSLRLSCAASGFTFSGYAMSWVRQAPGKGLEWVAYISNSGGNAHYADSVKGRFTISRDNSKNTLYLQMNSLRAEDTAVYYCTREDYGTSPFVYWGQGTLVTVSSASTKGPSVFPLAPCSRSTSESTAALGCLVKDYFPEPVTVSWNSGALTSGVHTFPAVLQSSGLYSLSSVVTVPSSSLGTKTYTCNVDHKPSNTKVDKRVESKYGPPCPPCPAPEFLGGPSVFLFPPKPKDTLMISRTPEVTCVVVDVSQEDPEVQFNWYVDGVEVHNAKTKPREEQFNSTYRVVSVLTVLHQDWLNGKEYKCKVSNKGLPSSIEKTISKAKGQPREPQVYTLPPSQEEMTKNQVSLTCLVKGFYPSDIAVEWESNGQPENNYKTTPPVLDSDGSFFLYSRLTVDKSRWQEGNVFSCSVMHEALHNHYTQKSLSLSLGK
light: B6 light with G8S, M9R, A12V, A14E, Y15V, K18G, T21D, I22W

Columns and labels:
[1] = molecular target: T1, human PD-1-Fc (R and D systems, Minneapolis, Minn.) (human, UniProt Q15116 25-167); test: ELISA; lower left panel
T1 sequence (Q15116 25-167): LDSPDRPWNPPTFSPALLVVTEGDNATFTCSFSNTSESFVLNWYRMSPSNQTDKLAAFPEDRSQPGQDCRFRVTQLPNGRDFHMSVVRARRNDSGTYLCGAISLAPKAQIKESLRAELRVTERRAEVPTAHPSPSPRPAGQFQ

[2] = molecular target: T1, human PD-1-Fc (R and D systems, …); test: ELISA; lower right panel
[3] = molecular target: T1, human PD-1-Fc (R and D systems, …); test: inhibition ELISA; hPDL-1 Fc blockade
[4] = molecular target: T1, human PD-1-Fc (R and D systems, …); test: inhibition ELISA; hPDL-2 Fc blockade
[5] = molecular target: human PD-1-His (R & D systems, Minneapolis, Minn.) (human, UniProt Q15116 25-167); test: BLI
Sequence of human PD-1-His (R & D systems, Minneapolis, Minn.) (Q15116 25-167): as above

Binder	IC50 [3]	IC50 [4]	also measured
B1			Kd [1]: 5.45 nM
B2			Kd [2]: 4.97 nM
B3	1.67 nM	1.83 nM	Kd [5]: 5.04 nM
B4	2.2 nM	1.2 nM	
B5	2.72 nM	1.95 nM	Kd [5]: 5.52 nM
B6			Kd [2]: 3.75 nM
B7			Kd [1]: 5.22 nM
